The supplement of paper PMC9732359
± gives the uncertainty stated by the source.

Assay: protein stability index of a GFP-peptide fusion (yeast GPS) (PSI 1-4); higher = more stable; sorted into four equal gates, so the index is relative within each strain
Outline: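 Tiled 17-residue yeast protein peptides were fused downstream of GFP in a plasmid that also expresses Cherry, and the pooled library was carried in yeast. Mid-log cultures in leucine-free medium were sorted into four equal gates by GFP/Cherry fluorescence ratio, and plasmids from each gate were PCR-amplified and Illumina-sequenced, with reads assigned to strains by barcodes. The protein stability index for each peptide was each gate's read frequency times its gate number, summed.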

| Sequence | protein stability index (doa10∆) | protein stability index (pdr5∆) | protein stability index (san1∆) | protein stability index (ubr1∆) |
| --- | --- | --- | --- | --- |
| MQHNPLAGKRGPKSGST [PGD1] | 2.94 ± 0.064 | 2.74 ± 0.057 | 2.85 ± 0.063 | 2.96 ± 0.048 |
| MSVERGIRWELISRLCP [RPT1] | 1.73 ± 0.052 | 2.17 ± 0.048 | 1.88 ± 0.07 | 1.93 ± 0.034 |
| ITHRDLHYDKDYNLRIY [SSN8] | 2.21 ± 0.051 | 2.1 ± 0.041 | 2.46 ± 0.043 | 2.18 ± 0.04 |
| KKDRATGDADEPELRVL [RPO21] | 3.53 ± 0.11 | 3.48 ± 0.074 | 3.39 ± 0.06 | 3.43 ± 0.046 |
| KPKAVARKSKEEREAAA [RPC53] | 2.57 ± 0.19 | 3.12 ± 0.1 | 2.61 ± 0.15 | 2.64 ± 0.17 |
| HKQISAEDLTIAAKTHI [SIN4] | 3.03 ± 0.12 | 3.1 ± 0.079 | 3.35 ± 0.084 | 2.76 ± 0.088 |
| LYNDADVLTLENIQEGT [CDC53] | 3.18 ± 0.1 | 3.03 ± 0.087 | 3.17 ± 0.044 | 3.2 ± 0.046 |
| DFKTDVDEPMTSAVELG [YJL039C/NUP192] | 2.17 ± 0.073 | 2.28 ± 0.068 | 2.54 ± 0.13 | 2.85 ± 0.06 |
| EAFIASGITDPYEMYKY [FAS2] | 1.81 ± 0.038 | 2.06 ± 0.05 | 1.73 ± 0.068 | 2.14 ± 0.045 |
| STIEKDMKEYDSDKGSK [SMC2] | 3.25 ± 0.1 | 3.44 ± 0.071 | 3.37 ± 0.056 | 3.44 ± 0.075 |
| STKIIMLLLNDSVENSS [SRB8] | 2.63 ± 0.074 | 2.15 ± 0.07 | 2.6 ± 0.077 | 2.74 ± 0.088 |
| ELVDMAGAGEANGTVVS [MTR3] | 2.98 ± 0.12 | 3.11 ± 0.14 |  | 3.05 ± 0.087 |
| KTFEIKEIKTNEYVIKT [YMR129W/POM152] | 2.58 ± 0.1 | 2.25 ± 0.089 | 1.92 ± 0.091 | 2.02 ± 0.047 |
| QLDSYLVNGFSQSQQKL [MED2] | 2.02 ± 0.05 | 2.35 ± 0.063 | 2.38 ± 0.064 | 2.72 ± 0.046 |
| VVAKLEDKRKVRSAEYY [RPL16B] | 3.49 ± 0.1 | 3.58 ± 0.11 | 3.15 ± 0.12 | 3.37 ± 0.14 |
| VTSADSNLKISLVKYPE [SWI1] | 2.61 ± 0.067 | 2.72 ± 0.073 | 2.52 ± 0.085 | 2.75 ± 0.05 |
| RLPVSEDTNTKPLFDFG [YOR098C/NUP1] | 2.76 ± 0.13 | 2.76 ± 0.12 | 1.93 ± 0.23 | 3.08 ± 0.13 |
| RQCFREKANDIGFHKYR [RPS29B] | 3.34 ± 0.15 | 3.35 ± 0.13 | 2.96 ± 0.1 | 2.88 ± 0.1 |
| SMLFKTSQKMTSTVNRL [MCD1] | 2.22 ± 0.073 | 2.77 ± 0.15 | 2.33 ± 0.14 | 3.04 ± 0.14 |
| LSTLPAGKSLVSKSEPK [QCR2] | 2.95 ± 0.17 | 3.27 ± 0.1 | 2.68 ± 0.11 | 3.44 ± 0.14 |

| Sequence | protein stability index (doa10∆) | protein stability index (pdr5∆) | protein stability index (san1∆) | protein stability index (ubr1∆) |
| --- | --- | --- | --- | --- |
| NYGSSLQWHAMIELICS [AAR2] | 1.31 ± 0.13 | 1.22 ± 0.13 | 1.1 ± 0.16 | 1.34 ± 0.15 |
| AQSRNVEIEKRILKLGT [YGR119C/NUP57] | 3.33 ± 0.082 | 3.15 ± 0.071 | 3.33 ± 0.077 | 3.34 ± 0.078 |
| TSTKPSFSFGAPESMKS [YOR098C/NUP1] | 2.97 ± 0.053 | 3.07 ± 0.062 | 3.15 ± 0.043 | 3.1 ± 0.046 |
| HAQLLLSDRITGNFIIP [PRP8] | 2.09 ± 0.061 | 2.52 ± 0.071 | 2.37 ± 0.071 | 2.71 ± 0.043 |
| FDRHCNMVLENVKELWT [SMD2] | 2.37 ± 0.081 | 2.38 ± 0.088 | 1.84 ± 0.1 | 2.03 ± 0.1 |
| RAGQRTRFKAVVVVGDS [RPS2] | 2.07 ± 0.056 | 2.2 ± 0.063 | 2.28 ± 0.088 | 2.29 ± 0.048 |
| GSVIQTHIAESAKEIAK [MCD1] | 2.91 ± 0.09 | 2.89 ± 0.08 | 3 ± 0.048 | 3.06 ± 0.058 |
| KEDEPVVARRSNSANVS [ITC1] | 3.07 ± 0.064 | 3.06 ± 0.068 | 2.57 ± 0.048 | 2.4 ± 0.05 |
| DDYSNLKREERQGLIHQ [SMC3] | 2.21 ± 0.2 | 2.6 ± 0.1 | 1.96 ± 0.21 | 2.7 ± 0.11 |
| YLAKELNLTGPKVPEDI [RPN1] | 3.26 ± 0.23 | 3.24 ± 0.27 | 2.38 ± 0.24 |  |
| QRVFKPVDITMMENYQN [PRP8] | 2.43 ± 0.063 | 2.27 ± 0.074 | 2.71 ± 0.073 | 2.41 ± 0.048 |
| NFPDEDDDDSRKSAPVD [SKP1] | 3.09 ± 0.046 | 3.2 ± 0.047 | 3.31 ± 0.04 | 3.27 ± 0.041 |
| TRYMFQRDFRKHGAVHL [RPL21A] | 2.42 ± 0.062 | 2.27 ± 0.069 | 2.33 ± 0.084 | 2.44 ± 0.092 |
| SVEEVILERAYKKLDID [SNF2] | 3.23 ± 0.16 | 3.07 ± 0.24 | 2.95 ± 0.13 |  |
| KDQIQAGKWFDPVLDWR [SIR4] | 3.56 ± 0.14 | 3.49 ± 0.094 | 2.95 ± 0.19 | 3.22 ± 0.07 |
| LTVIEKLDSKKILPTDI [SRP68] | 2.71 ± 0.13 | 3 ± 0.12 | 2.95 ± 0.1 | 2.71 ± 0.061 |
| QGIFKNSSNYFGELQFA [AAR2] | 2.36 ± 0.14 | 2.6 ± 0.1 | 2.41 ± 0.12 | 2.11 ± 0.12 |
| GSIQKGMPHKFYQGKTG [RPL21A] | 3.07 ± 0.14 | 3.06 ± 0.16 | 2.9 ± 0.21 | 2.51 ± 0.28 |
| NQMGMGTNNGMSMGGGV [YOR098C/NUP1] | 3.39 ± 0.13 | 3.15 ± 0.17 | 3.33 ± 0.099 | 3.24 ± 0.11 |
| QINNVHLIPNEIKGASE [RPN4] | 2.84 ± 0.064 | 2.75 ± 0.059 | 2.42 ± 0.06 | 2.76 ± 0.052 |
